Measurements from patent publication US12492373B2, “Production method for nerve tissue” (Racthera Co., Ltd., priority 2014, dated 2025).

Columns and labels:
[1] = tested on: human iPS cells (Ff-I01 strain); assay: Neural tissue / neuroepithelium formation in cell aggregates, bright field observation; type: cell-based
Procedure: At the time of the start of suspension culturing (day 0 after the start of suspension culturing, […]), Y27632 ([…]) were added to the above serum-free medium (FIG. 22). By day 2 after the start of suspension culturing, a cell aggregate was formed (step 2 completed, step 3 start) under any conditions. On day 3 or later from the start of suspension culturing, BMP4 was added under 3 conditions including the following conditions 1-3. • Condition 1: (+BMP4 addition once) On day 3 of suspension culturing, a medium (50 μl) free of Y27632 and SAG, and containing human recombinant BMP4 (manufactured by R&D) was added such that the final concentration of exogenous human recombinant BMP4 was 1.5 nM (55 ng/ml). On day 6 or later from the start of suspension culturing, a half amount of the medium was changed to a serum-free medium free of Y27632, SAG and human recombinant BMP4. • Condition 2: (+BMP4 addition twice) On day 3 of suspension culturing, a medium (50 μl) free of Y27632, SAG and containing human recombinant BMP4 (manufactured by R&D) was added such that the final concentration of exogenous human recombinant BMP4 was 1.5 nM (55 ng/ml). On day 6 from the start of suspension culturing, 50 μl of the medium was discarded, and 50 μl of a medium free of Y27632 and SAG and containing human recombinant BMP4 (manufactured by R&D) was added to maintain the final concentration of exogenous human recombinant BMP4 at 1.5 nM (55 ng/ml). On day 9 or later from the start of suspension culturing, a half amount of the medium was changed with a serum-free medium free of Y27632, SAG, and human recombinant BMP4. • Condition 3: (+BMP4 addition three times) On day 3 of suspension culturing, a medium (50 μl) free of Y27632, SAG and containing human recombinant BMP4 (manufactured by R&D) was added such that the final concentration of exogenous human recombinant BMP4 was 1.5 nM (55 ng/ml). On days 6 and 9 from the start of suspension culturing, 50 μl of the medium was discarded, and 50 μl of a medium free of Y27632 and SAG and containing human recombinant BMP4 (manufactured by R&D) was added to maintain the final concentration of exogenous human recombinant BMP4 at 1.5 nM (55 ng/ml). On day 12 or later from the start of suspension culturing, a half amount of the medium was changed with a serum-free medium free of Y27632, SAG and human recombinant BMP4. […]
On day 3 after the start of suspension culturing, a medium (50 μl) free of Y27632 and SAG, and containing human recombinant BMP4 (manufactured by R&D) was added such that the final concentration of exogenous human recombinant BMP4 was 1.5 nM (55 ng/ml) or 5 nM (183 ng/ml). […]

[2] = tested on: human iPS cells (Ff-I01 strain); assay: Immunostaining of aggregate sections for retinal tissue marker Chx10; type: cell-based
From the text: Cell aggregates on day 16 after the start of suspension culturing were fixed with 4% para-formaldehyde to prepare frozen sections. These frozen sections were immunostained for Chx10 (anti-Chx10 antibody, Exalpha, sheep), which is one of the retinal tissue markers. These immunostained sections were observed under a fluorescence microscope.
Cell aggregates on day 16 after the start of suspension culturing were fixed with 4% para-formaldehyde to prepare frozen sections. These frozen sections were immunostained for Chx10 (anti-Chx10 antibody, Exalpha, sheep), which is one of the retinal tissue markers, and observed under a fluorescence microscope. […] In addition, the proportion of Chx10-positive cells in the total cells is about 80% under conditions with the addition of BMP4 twice to maintain the final concentration of 5 nM (FIG. 23, D)
The cell aggregates on day 19 after the start of suspension culturing were fixed with 4% para-formaldehyde to prepare frozen sections. These frozen sections were immunostained for Chx10 (anti-Chx10 antibody, Exalpha, sheep), which is one of the retinal tissue markers. These immunostained sections were observed under an inverted fluorescence microscope. As a result, the proportion of Chx10-positive cells in the total cells is about 70% under conditions with the addition of BMP4 twice to maintain the final concentration of 1.5 nM ([…]). In addition, the proportion of Chx10-positive cells in the total cells is about 90% under conditions with the addition of BMP4 twice to maintain the final concentration of 5 nM (FIG. 34, D).
The thus-prepared cell aggregates on day 19 after the start of suspension culturing were fixed with 4% para-formaldehyde to prepare frozen sections. These frozen sections were immunostained for Chx10 (anti-Chx10 antibody, Exalpha, sheep), which is one of the retinal tissue markers, and observed under a fluorescence microscope.

B1: BMP4: human recombinant BMP4 (manufactured by R&D), BMP signal transduction pathway activating substance (protein, UniProt P12644 293-408, looked up)
Bone morphogenetic protein 4: SPKHHSQRARKKNKNCRRHSLYVDFSDVGWNDWIVAPPGYQAFYCHGDCPFPLADHLNSTNHAIVQTLVNSVNSSIPKACCVPTELSAISMLYLDEYDKVVLKNYQEMVVEGCGCR
For B1, the “cell aggregate and neural tissue formation” value ([1]; SAG 300 nM 2 days in step 1, SAG 300 nM in step 2, BMP4 1.5 nM added 1, 2 or 3 times in step 3, day 16) was “a neural tissue could be formed efficiently”, the “cell aggregate and neural tissue formation” value ([1]; SAG 300 nM 2 days in step 1, SAG 1000 nM in step 2, BMP4 at 1.5 nM and 5 nM in step 3, day 16) was “a neural tissue could be formed efficiently” and the “cell aggregate and neural tissue formation” value ([1]; StemFit AK03N, SAG 300 nM 2 days in step 1, SAG 500 nM in step 2, BMP4 at 1.5 nM or 5 nM, day 19) was “a neural tissue can be formed efficiently”. For the same molecule, the “proportion of Chx10-positive cells in the total cells” value (“proportion of Chx10-positive cells” for short) ([2]; SAG 300 nM 2 days in step 1, SAG 300 nM in step 2, BMP4 1.5 nM added 2 or 3 times, day 16) was “about 80%”, the “proportion of Chx10-positive cells” value ([2]; SAG 300 nM 2 days in step 1, SAG 300 nM in step 2, BMP4 1.5 nM added once (day 3), day 16) was “about 60%” and the “proportion of Chx10-positive cells” value ([2]; StemFit AK03, SAG 300 nM 2 days in step 1, SAG 1000 nM in step 2, BMP4 added twice to maintain 1.5 nM, day 16) was “about 70%”. For the same molecule, the “proportion of Chx10-positive cells” value ([2]; StemFit AK03, SAG 300 nM 2 days in step 1, SAG 1000 nM in step 2, BMP4 added twice to maintain 5 nM, day 16) was “about 80%”, the “proportion of Chx10-positive cells” value ([2]; StemFit AK03N, SAG 300 nM 2 days in step 1, SAG 500 nM in step 2, BMP4 added twice to maintain 1.5 nM, day 19) was “about 70%” and the “proportion of Chx10-positive cells” value ([2]; StemFit AK03N, SAG 300 nM 2 days in step 1, SAG 500 nM in step 2, BMP4 added twice to maintain 5 nM, day 19) was “about 90%”.
